In patent publication US20120263734A1:

Biological target: GPCMV gB (glycoprotein B of Guinea Pig CMV strain V545/82) (guinea pig CMV (GPCMV))
Assay: cell-based or functional assay

ITC88 control antibody
neutralization of GPCMV V545/82 entry into JH4 cells (highest concentration tested, no effect): > 300 µg/mL
